In assay [1] the target is NKG2D ligands. As to the kind of experiment: flow cytometry, human primary NK cells after 24 h 1:1 co-culture with HL60 cells, NKG2D-Fc protein 5 µg/mL, anti-human IgG Fc-PE; histogram peak near 10^2; control NK only+PBS: 12.0. (In general: Flow cytometry measures light scatter and fluorescence of single cells or particles in a stream.)
The target in assay [2] is NKG2D ligands. In words: flow cytometry, human primary NK cells after 24 h 1:1 co-culture with KG-1 cells, NKG2D-Fc protein 5 µg/mL, anti-human IgG Fc-PE; histogram peak near 10^2; control NK only+PBS: 12.0.
In assay [3] the target is NKG2D ligands. In words: flow cytometry, human primary NK cells after 24 h 1:1 co-culture with THP-1 cells, NKG2D-Fc protein 5 µg/mL, anti-human IgG Fc-PE; histogram peak near 10^2; control NK only+PBS: 12.0.
Assay [4] addresses NKG2D ligands. In words: flow cytometry, human primary NK cells after 24 h 1:1 co-culture with MV4-11 cells, NKG2D-Fc protein 5 µg/mL, anti-human IgG Fc-PE; faint histogram near 10^2; control NK only+PBS: 12.0.
Assay [5] deals with NKG2D ligands. As to the kind of experiment: flow cytometry, human primary NK cells after 24 h 1:1 co-culture with NKG2D-UCAR-T cells, NKG2D-Fc protein 5 µg/mL, anti-human IgG Fc-PE; histogram peak near 10^2; control NK only+PBS: 12.0.

NKG2D-Fc protein, sequence (P26718 78-216 limits assumed): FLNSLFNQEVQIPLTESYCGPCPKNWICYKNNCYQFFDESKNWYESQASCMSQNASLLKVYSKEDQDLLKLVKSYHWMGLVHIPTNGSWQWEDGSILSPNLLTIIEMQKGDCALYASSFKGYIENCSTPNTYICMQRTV

For the substance “NKG2D-Fc protein (from UniProt P26718) (Fc fusion)”, the PE fluorescence statistic, name not given with NKG2D ligands [1] turned out to be 107; with NKG2D ligands [2], 99.7; in the assay with NKG2D ligands [3] it was 125; in the assay with NKG2D ligands [4], 124; in the assay with NKG2D ligands [5], 95.

The record behind these values is patent US20260218128A1.
